Assays:
Assay in all cases: SPR
[1] = biological target: Recombinant human PD-1-His (Sino Biological catalog #10377-H08H-B) (UniProt Q15116 25-167)
[2] = biological target: T1, Recombinant cynomolgus monkey PD-1-His (Sino Biological catalog #90311-C08H)
T1 chain: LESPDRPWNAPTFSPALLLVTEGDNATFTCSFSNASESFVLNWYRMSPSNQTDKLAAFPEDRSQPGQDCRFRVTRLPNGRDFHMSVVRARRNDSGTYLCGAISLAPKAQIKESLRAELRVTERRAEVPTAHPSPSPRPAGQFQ

[3] = biological target: T2, Recombinant rhesus monkey PD-1-His (Sino Biological catalog #90305-K08H)
T2 chain: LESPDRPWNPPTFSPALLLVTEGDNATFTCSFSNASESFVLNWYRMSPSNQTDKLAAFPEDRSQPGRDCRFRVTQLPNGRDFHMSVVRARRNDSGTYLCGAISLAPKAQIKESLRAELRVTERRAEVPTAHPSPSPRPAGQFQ

B1: HPD-BB9 (antibody, V domains shown)
VH: QVQLVQSGAEVKKPGASVKVSCKASGFRLTTNGISWVRQAPGQGLEWMGWISAGGGPTNYAQKLQGRVTMTTDTSTSTAYMELRSLRSDDTAVYYCAKGLYGTKDAWGQGTLVTVSS
VL: QSVLTQPPSVSEVPGQRVTISCSGGGSNIGSNAVNWYQHFPGKAPKLLIYYNDLLPSGVSDRFSASKSGTSASLAISGLRSEDEADYYCAAWDDNLSAYVFATGTKVTVL
Kd [1]: 12.2 nM
Kd [2]: 35.2 nM
Kd [3]: 3.33 nM

From patent US20230235059A1 (published 2023)
